From paper PMC10700182, “A Bacterial Quorum Sensing Regulated Protease Inhibits Host Immune Responses by Cleaving Death Domains of Innate Immune Adaptors” (Advanced Science, 2023)

Target: the molecule itself
Test: native gel or EMSA

B1: Myd88 DD^20-117-SNAP (domain or fragment)
chain: LPLAALNMRVRRRLSLFLNVRTQVAADWTALAEEMDFEYLEIRQLETQADPTGRLLDAWQGRPGASVGRLLELLTKLGRDDVLLELGPSIEEDCQKYI
modifications: benzylguanine dye (BG-647 or BG-488, AlexaFluor) on the SNAP tag
notes: also called MyD88 Death domain; MyD88 DD SNAP; source: E. coli BL21(DE3), purified (Ni-NTA agarose)
B1: binds.
